Test results taken from article PMC5501846, “X-Ray snapshots of a pyridoxal enzyme: a catalytic mechanism involving concerted [1,5]-hydrogen sigmatropy in methionine γ-lyase” (Scientific Reports, 2017).
Each block holds one molecule with its values, some of them ahead of it.

Columns and labels:
[1] = target: T1, EhMGL1 (Entamoeba histolytica, UniProt Q86D28); test: X-ray crystallography, […] Å; assay type: binding; conditions: covalent, Schiff base with Lys205; substrate-free enzyme
T1 construct: gene metg; homotetramer
T1 sequence (Q86D28 1-389): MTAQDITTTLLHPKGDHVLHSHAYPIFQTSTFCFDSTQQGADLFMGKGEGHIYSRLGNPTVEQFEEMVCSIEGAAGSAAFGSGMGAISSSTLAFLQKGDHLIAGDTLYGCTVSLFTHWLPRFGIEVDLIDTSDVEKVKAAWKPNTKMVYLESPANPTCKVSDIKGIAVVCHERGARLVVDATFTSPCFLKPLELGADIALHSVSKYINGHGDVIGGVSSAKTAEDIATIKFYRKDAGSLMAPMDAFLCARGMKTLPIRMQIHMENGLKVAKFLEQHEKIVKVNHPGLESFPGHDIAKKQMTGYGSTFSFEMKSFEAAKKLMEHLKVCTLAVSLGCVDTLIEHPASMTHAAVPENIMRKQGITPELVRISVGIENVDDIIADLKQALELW

[2] = target: T1, EhMGL1; test: X-ray crystallography of methionine-soaked crystals; assay type: binding; conditions: covalent Schiff base with PLP in intermediates; Michaelis complex also seen; 50 mM L-methionine soak 30–120 s, 293 K
[3] = target: L-methionine γ-lyase from Entamoeba histolytica (EhMGL1) (Entamoeba histolytica); test: crystal structure; hanging-drop vapor diffusion at 277 K, 1.8 M ammonium sulfate, 0.1 M cacodylate pH 6.6, 0.1 M lithium citrate, 100 μM PLP; substrate-free and methionine-soaked crystals (50 mM L-methionine, 30-120 s, 293 K); tetramer of two catalytic dimers in the crystal
[4] = substrate: COCC[C@H](N)C(=O)O; test: purified protein; conditions: 100 mM phosphate pH 7.0, 1 mM DTT, 20 μM PLP, 37 °C
[5] = substrate: C[Se]CC[C@H](N)C(=O)O; test: purified protein; conditions: 100 mM phosphate pH 7.0, 1 mM DTT, 20 μM PLP, 37 °C

Molecule: Cc1ncc(COP(=O)(O)O)c(C=O)c1O [pyridoxal 5′-phosphate]
X-ray crystallography, 1.97 Å [1]: the active site binds a PLP cofactor that forms a Schiff base

Molecule: CSCC[C@H](N)C(=O)O [CH3S, L-methionine]
X-ray crystallography of methionine-soaked crystals [2]: Crystals of EhMGL1 complexed with reaction intermediates were prepared by soaking crystals

stoichiometry N [3]: 4
Molecule: L-methionine γ-lyase from Entamoeba histolytica (EhMGL1) (enzyme)

B1: EhMGL1 (Entamoeba histolytica) (protein)
chain: MTAQDITTTLLHPKGDHVLHSHAYPIFQTSTFCFDSTQQGADLFMGKGEGHIYSRLGNPTVEQFEEMVCSIEGAAGSAAFGSGMGAISSSTLAFLQKGDHLIAGDTLYGCTVSLFTHWLPRFGIEVDLIDTSDVEKVKAAWKPNTKMVYLESPANPTCKVSDIKGIAVVCHERGARLVVDATFTSPCFLKPLELGADIALHSVSKYINGHGDVIGGVSSAKTAEDIATIKFYRKDAGSLMAPMDAFLCARGMKTLPIRMQIHMENGLKVAKFLEQHEKIVKVNHPGLESFPGHDIAKKQMTGYGSTFSFEMKSFEAAKKLMEHLKVCTLAVSLGCVDTLIEHPASMTHAAVPENIMRKQGITPELVRISVGIENVDDIIADLKQALELW
Km [4]: 2500 ± 240 µM
kcat [4]: 1.04 ± 0.35 s⁻¹
kcat/Km [4]: 420 ± 150 M⁻¹ s⁻¹
Km [5]: 410 ± 70 µM
